Laboratory results: patent publication US20240376151A1, “STAPLED PEPTIDES AND METHODS THEREOF” (FOG PHARMACEUTICALS, INC., priority 2022, published 2024)
Numbered stars: 1 amine (or outer) side, 2 acyl side, 3 side chain; on linkers, the order of the positions; unused ones are H or OH. Bridge positions count the residues as written; N and C are the ends. Ends that are not written are not given here. Phenylene(1,4-NHCOCH2)2 = O=C(C[*:1])Nc1ccc(NC(=O)C[*:2])cc1

Legend:
[1] = target: T1, WWP1 (Homo sapiens, UniProt Q9H0M0); assay: Naive Library Presenter Screening (phage, NGS), WWP1 (construct not given); format: binding; settings: for interaction data at Target Concentration 10: WWP1 target concentration 10 nM; for interaction data at Target Concentration 30: WWP1 target concentration 30 nM; for interaction data at Target Concentration 100: WWP1 target concentration 100 nM; for interaction data at Target Concentration 300: WWP1 target concentration 300 nM; for interaction data at Target Concentration 1000: WWP1 target concentration 1000 nM
T1 construct: GST-TEV (N, cleaved yes); made in house; host or cells: Escherichia coli BL21 (DE3)

[2] = target: T2, WWP2^HECT (Homo sapiens, UniProt O00308); assay: Naive Library Presenter Screening (phage, NGS), WWP2^HECT; format: binding; settings: for interaction data at Target Concentration 10: WWP2 target concentration 10 nM; for interaction data at Target Concentration 30: WWP2 target concentration 30 nM; for interaction data at Target Concentration 100: WWP2 target concentration 100 nM; for interaction data at Target Concentration 300: WWP2 target concentration 300 nM; for interaction data at Target Concentration 1000: WWP2 target concentration 1000 nM
T2 construct: GST-TEV (N, cleaved yes); made in house; host or cells: Escherichia coli BL21 (DE3)
T2 sequence (O00308 492-865): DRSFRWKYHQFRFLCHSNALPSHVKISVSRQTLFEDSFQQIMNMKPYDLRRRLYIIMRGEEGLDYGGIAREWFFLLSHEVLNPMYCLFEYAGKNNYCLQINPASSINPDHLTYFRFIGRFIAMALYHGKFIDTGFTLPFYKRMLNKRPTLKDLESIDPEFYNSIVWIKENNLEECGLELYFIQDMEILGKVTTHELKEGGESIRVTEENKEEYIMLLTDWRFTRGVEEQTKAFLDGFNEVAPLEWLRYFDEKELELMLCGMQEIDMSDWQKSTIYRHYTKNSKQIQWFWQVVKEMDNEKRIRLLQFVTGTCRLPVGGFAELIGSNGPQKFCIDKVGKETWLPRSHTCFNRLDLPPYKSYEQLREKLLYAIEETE

Sequence | interaction data at Target Concentration 10 [2] | interaction data at Target Concentration 30 [2] | interaction data at Target Concentration 100 [2] | interaction data at Target Concentration 300 [2] | interaction data at Target Concentration 1000 ([2]; first column) | interaction data at Target Concentration 1000 ([2]; second column) | interaction data at Target Concentration 10 [1] | interaction data at Target Concentration 30 [1] | interaction data at Target Concentration 100 [1] | interaction data at Target Concentration 300 [1] | interaction data at Target Concentration 1000 ([1]; first column) | interaction data at Target Concentration 1000 ([1]; second column)
DPAMIACSHAAQMCHWS (linker 7-14 via Phenylene(1,4-NHCOCH2)2) |  |  |  |  |  |  | 0 | 8 | 3 | 454 | 275 | 281
DPAIMSCMYAAEVCRVL (linker 7-14 via Phenylene(1,4-NHCOCH2)2) |  |  |  |  |  |  | 0 | 1 | 147 | 109 | 183 | 253
DPATHVCTTAA VMCHQT (DPATHVCTTAAVMCHQT; not fully specified; cysteine pairing not given here) |  |  |  |  |  |  | 0 | 0 | 6 | 327 | 275 | 365
DPATWDCIWAAERCWRY (linker 7-14 via Phenylene(1,4-NHCOCH2)2 (inferred); not fully specified (C-terminus)) | 0 | 0 | 1 | 4 | 9 | 13 |  |  |  |  |  | 
DPALWECMTAADWCMFM (linker 7-14 via Phenylene(1,4-NHCOCH2)2; not fully specified (C-terminus)) | 1 | 24 | 17 | 18 | 28 | 32 |  |  |  |  |  | 
DPAQNMCQAAADVCMFF (DPAQNMCQAAADVCMFF-NH2; linker 7-14 via Phenylene(1,4-NHCOCH2)2; N-terminus assumed; SMILES CSCC[C@H](NC(=O)[C@H](CC(N)=O)NC(=O)[C@H](CCC(N)=O)NC(=O)[C@H](C)NC(=O)[C@@H]1CCCN1C(=O)[C@@H](N)CC(=O)O)C(=O)N[C@H]1CSCC(=O)Nc2ccc(cc2)NC(=O)CSC[C@@H](C(=O)N[C@@H](CCSC)C(=O)N[C@@H](Cc2ccccc2)C(=O)N[C@@H](Cc2ccccc2)C(N)=O)NC(=O)[C@H](C(C)C)NC(=O)[C@H](CC(=O)O)NC(=O)[C@H](C)NC(=O)[C@H](C)NC(=O)[C@H](C)NC(=O)[C@H](CCC(N)=O)NC1=O) | 2 | 67 | 51 | 125 | 120 | 127 |  |  |  |  |  | 
DPAAWDCRYAALACYIH (linker 7-14 via Phenylene(1,4-NHCOCH2)2 (inferred)) | 0 |  | 2 | 11 | 66 | 34 |  |  |  |  |  | 
DPAIHSCYAAAETCQFF (linker 7-14 via Phenylene(1,4-NHCOCH2)2 (inferred)) | 43 | 87 | 89 | 139 | 127 | 194 |  |  |  |  |  | 
DPAYHHCLAAADLCSFF | 59 | 97 | 107 | 147 | 101 | 141 |  |  |  |  |  | 
DPARVDCLVAADMCHMF (DPARVDCLVAADMCHMF-NH2; linker 7-14 via Phenylene(1,4-NHCOCH2)2; N-terminus assumed; SMILES CSCC[C@H](NC(=O)[C@H](Cc1c[nH]cn1)NC(=O)[C@@H]1CSCC(=O)Nc2ccc(cc2)NC(=O)CSC[C@H](NC(=O)[C@H](CC(=O)O)NC(=O)[C@@H](NC(=O)[C@H](CCCNC(=N)N)NC(=O)[C@H](C)NC(=O)[C@@H]2CCCN2C(=O)[C@@H](N)CC(=O)O)C(C)C)C(=O)N[C@@H](CC(C)C)C(=O)N[C@@H](C(C)C)C(=O)N[C@@H](C)C(=O)N[C@@H](C)C(=O)N[C@@H](CC(=O)O)C(=O)N[C@@H](CCSC)C(=O)N1)C(=O)N[C@@H](Cc1ccccc1)C(N)=O) | 165 | 532 | 522 | 555 | 466 | 573 |  |  |  |  |  | 
DPALWECRNAAWQCWMH (linker 7-14 via Phenylene(1,4-NHCOCH2)2; not fully specified (C-terminus)) | 0 | 0 | 0 | 24 | 35 | 27 |  |  |  |  |  | 
DPALLHCMAAAQTCSFF (linker 7-14 via Phenylene(1,4-NHCOCH2)2; not fully specified (C-terminus)) | 0 | 47 | 26 | 37 | 59 | 123 |  |  |  |  |  | 

More lines, main results first:

interaction data at Target Concentration 10 [2] | interaction data at Target Concentration 30 [2] | interaction data at Target Concentration 100 [2] | interaction data at Target Concentration 300 [2] | interaction data at Target Concentration 1000 ([2]; first column) | interaction data at Target Concentration 1000 ([2]; second column) | Sequence | interaction data at Target Concentration 10 [1] | interaction data at Target Concentration 30 [1] | interaction data at Target Concentration 100 [1] | interaction data at Target Concentration 300 [1] | interaction data at Target Concentration 1000 ([1]; first column) | interaction data at Target Concentration 1000 ([1]; second column)
87 | 318 | 384 | 608 | 419 | 565 | DPALIHCRAAADTCAFW (linker 7-14 via Phenylene(1,4-NHCOCH2)2; not fully specified (C-terminus)) |  |  |  |  |  | 
0 | 0 | 0 | 8 | 12 | 20 | DPAIWDCLYAATNCYIN (linker 7-14 via Phenylene(1,4-NHCOCH2)2; not fully specified (C-terminus)) |  |  |  |  |  | 
0 | 0 | 0 | 28 | 33 | 15 | DPAVWDCRYAAWDCYTN (linker 7-14 via Phenylene(1,4-NHCOCH2)2 (inferred); not fully specified (C-terminus)) |  |  |  |  |  | 
37 | 57 | 70 | 94 | 78 | 123 | DPATYYCEAAAETCRFF (linker 7-14 via Phenylene(1,4-NHCOCH2)2 (inferred); not fully specified (C-terminus)) |  |  |  |  |  | 
0 | 0 | 0 | 6 | 23 | 15 | DPATWACINAAHNCWRN (DPATWACINAAHNCWRN-NH2; linker 7-14 via Phenylene(1,4-NHCOCH2)2 (inferred)) |  |  |  |  |  | 
0 | 179 | 254 | 297 | 283 | 378 | DPAANYCEAAADTCQFF (linker 7-14 via Phenylene(1,4-NHCOCH2)2 (inferred)) |  |  |  |  |  | 
0 | 0 | 0 | 8 | 7 | 27 | DPANWDCQQAAWLCIIQ (DPANWDCQQAAWLCIIQ-NH2; linker 7-14 via Phenylene(1,4-NHCOCH2)2; N-terminus assumed; SMILES CC[C@H](C)[C@H](NC(=O)[C@@H]1CSCC(=O)Nc2ccc(cc2)NC(=O)CSC[C@H](NC(=O)[C@H](CC(=O)O)NC(=O)[C@H](Cc2c[nH]c3ccccc23)NC(=O)[C@H](CC(N)=O)NC(=O)[C@H](C)NC(=O)[C@@H]2CCCN2C(=O)[C@@H](N)CC(=O)O)C(=O)N[C@@H](CCC(N)=O)C(=O)N[C@@H](CCC(N)=O)C(=O)N[C@@H](C)C(=O)N[C@@H](C)C(=O)N[C@@H](Cc2c[nH]c3ccccc23)C(=O)N[C@@H](CC(C)C)C(=O)N1)C(=O)N[C@H](C(=O)N[C@@H](CCC(N)=O)C(N)=O)[C@@H](C)CC) |  |  |  |  |  | 
0 | 1 | 4 | 8 | 12 | 12 | DPATWDCRNAAWLCLLN (linker 7-14 via Phenylene(1,4-NHCOCH2)2 (inferred); not fully specified (C-terminus)) |  |  |  |  |  | 
0 | 65 | 96 | 109 | 117 | 127 | DPAIQNCRSAADVCMFF (linker 7-14 via Phenylene(1,4-NHCOCH2)2; not fully specified (C-terminus)) |  |  |  |  |  | 
